Experiment [1] has as its target human collagen type I (acid soluble, extracted from placenta, Sigma C7774) (human) (UniProt P02452). In words: dried collagen assay, 5 uM each.
Experiment [2] addresses rat collagen (acid soluble, type I, rat tail, Upstate 08-115) (rat) (UniProt P02454). In words: dried collagen assay, 5 uM each.

Bridge positions count the residues as written; N and C are the ends. GdDTPA‑thiourea = GdT is GdDTPA-thiourea (Gd-DTPA chelate attached through a thiourea)

Sequence of human collagen type I (acid soluble, extracted from placenta, Sigma C7774) (human) (P02452 162-1218 limits assumed, chain 1 of 2): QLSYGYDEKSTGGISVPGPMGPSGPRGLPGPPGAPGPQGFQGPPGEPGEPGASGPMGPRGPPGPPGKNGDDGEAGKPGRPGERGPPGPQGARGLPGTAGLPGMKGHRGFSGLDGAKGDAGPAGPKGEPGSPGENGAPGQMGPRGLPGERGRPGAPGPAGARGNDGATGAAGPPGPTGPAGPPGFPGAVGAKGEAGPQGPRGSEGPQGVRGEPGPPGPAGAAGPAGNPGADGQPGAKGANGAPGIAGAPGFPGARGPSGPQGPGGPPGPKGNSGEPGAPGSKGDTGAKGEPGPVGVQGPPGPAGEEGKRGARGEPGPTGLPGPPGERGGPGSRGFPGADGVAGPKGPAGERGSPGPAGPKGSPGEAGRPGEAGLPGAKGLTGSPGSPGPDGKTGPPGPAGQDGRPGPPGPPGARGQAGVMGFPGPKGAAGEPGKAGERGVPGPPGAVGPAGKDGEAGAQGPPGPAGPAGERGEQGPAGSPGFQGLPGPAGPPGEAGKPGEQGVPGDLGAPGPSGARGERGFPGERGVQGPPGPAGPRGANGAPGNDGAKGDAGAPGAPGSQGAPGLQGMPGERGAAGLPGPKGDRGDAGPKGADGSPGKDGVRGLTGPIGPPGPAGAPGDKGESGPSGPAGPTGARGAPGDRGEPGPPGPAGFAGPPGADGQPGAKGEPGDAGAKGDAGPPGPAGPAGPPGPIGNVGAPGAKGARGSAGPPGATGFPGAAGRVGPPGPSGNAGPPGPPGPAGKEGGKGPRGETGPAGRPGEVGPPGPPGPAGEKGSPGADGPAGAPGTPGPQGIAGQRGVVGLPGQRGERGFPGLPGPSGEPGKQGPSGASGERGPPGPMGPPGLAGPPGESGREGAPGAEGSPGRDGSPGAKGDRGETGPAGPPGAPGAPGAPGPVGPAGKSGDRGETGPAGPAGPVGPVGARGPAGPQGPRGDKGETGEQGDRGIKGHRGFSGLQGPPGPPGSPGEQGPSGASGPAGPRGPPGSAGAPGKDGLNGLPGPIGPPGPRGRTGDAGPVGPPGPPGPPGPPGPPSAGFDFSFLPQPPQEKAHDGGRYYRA
Sequence of human collagen type I (acid soluble, extracted from placenta, Sigma C7774) (human) (P08123 80-1119 limits assumed, chain 2 of 2, further chain): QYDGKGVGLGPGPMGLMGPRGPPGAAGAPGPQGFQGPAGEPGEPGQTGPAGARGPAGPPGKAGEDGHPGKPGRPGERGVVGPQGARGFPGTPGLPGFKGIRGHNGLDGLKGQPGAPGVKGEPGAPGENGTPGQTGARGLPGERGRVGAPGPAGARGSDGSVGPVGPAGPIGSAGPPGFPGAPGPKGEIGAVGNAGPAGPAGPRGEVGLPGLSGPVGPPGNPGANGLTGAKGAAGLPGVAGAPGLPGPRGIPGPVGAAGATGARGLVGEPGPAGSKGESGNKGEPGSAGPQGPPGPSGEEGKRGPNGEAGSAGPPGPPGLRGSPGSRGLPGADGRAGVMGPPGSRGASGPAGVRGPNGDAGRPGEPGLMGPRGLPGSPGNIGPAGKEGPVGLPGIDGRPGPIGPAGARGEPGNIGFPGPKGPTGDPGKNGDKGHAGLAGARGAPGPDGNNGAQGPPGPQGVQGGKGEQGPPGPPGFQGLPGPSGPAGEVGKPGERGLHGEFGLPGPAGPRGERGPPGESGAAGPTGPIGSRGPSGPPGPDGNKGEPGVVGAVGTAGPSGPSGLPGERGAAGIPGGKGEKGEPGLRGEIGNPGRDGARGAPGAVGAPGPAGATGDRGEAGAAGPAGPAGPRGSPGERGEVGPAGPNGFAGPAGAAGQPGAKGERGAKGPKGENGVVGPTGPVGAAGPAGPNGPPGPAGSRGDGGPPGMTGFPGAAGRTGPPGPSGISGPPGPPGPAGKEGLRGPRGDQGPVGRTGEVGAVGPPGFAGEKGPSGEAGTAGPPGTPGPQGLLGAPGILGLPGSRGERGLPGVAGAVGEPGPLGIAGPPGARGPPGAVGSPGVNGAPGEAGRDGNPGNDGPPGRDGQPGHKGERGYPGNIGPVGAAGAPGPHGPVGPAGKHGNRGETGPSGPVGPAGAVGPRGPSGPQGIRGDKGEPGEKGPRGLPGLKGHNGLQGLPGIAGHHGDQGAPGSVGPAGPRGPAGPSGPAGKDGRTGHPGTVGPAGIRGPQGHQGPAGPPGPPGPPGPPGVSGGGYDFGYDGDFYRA
Sequence of rat collagen (acid soluble, type I, rat tail, Upstate 08-115) (rat) (P02454 152-1207, chain 1 of 2): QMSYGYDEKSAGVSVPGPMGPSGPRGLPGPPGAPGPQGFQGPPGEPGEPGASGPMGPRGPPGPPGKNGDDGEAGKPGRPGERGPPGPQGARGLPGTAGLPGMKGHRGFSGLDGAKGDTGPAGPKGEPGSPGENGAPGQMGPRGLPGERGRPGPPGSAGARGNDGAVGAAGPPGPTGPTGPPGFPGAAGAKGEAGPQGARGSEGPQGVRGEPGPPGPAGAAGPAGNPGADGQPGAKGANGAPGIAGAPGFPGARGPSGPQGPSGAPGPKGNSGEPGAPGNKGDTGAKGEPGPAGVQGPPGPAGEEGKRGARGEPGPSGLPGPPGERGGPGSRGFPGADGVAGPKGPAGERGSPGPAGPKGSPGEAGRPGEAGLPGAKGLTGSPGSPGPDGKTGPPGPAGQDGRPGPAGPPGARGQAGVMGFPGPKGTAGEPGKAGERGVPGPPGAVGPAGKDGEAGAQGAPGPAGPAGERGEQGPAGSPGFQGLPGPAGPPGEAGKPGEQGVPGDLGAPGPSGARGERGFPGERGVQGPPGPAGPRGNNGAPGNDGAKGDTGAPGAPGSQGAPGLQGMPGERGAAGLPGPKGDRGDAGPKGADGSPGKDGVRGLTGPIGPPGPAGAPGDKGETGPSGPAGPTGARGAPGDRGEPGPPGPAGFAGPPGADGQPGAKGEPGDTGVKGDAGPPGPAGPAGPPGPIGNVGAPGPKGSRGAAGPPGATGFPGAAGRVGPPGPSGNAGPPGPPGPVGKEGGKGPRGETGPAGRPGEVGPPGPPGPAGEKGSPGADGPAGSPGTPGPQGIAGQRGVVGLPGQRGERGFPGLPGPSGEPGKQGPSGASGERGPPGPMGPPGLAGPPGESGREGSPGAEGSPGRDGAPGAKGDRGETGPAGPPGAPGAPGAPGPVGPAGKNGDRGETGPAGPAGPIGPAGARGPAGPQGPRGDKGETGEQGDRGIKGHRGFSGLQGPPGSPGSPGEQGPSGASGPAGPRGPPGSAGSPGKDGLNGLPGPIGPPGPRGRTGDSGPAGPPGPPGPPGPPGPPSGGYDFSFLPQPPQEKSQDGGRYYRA
Sequence of rat collagen (acid soluble, type I, rat tail, Upstate 08-115) (rat) (P02466 86-1125, chain 2 of 2, further chain): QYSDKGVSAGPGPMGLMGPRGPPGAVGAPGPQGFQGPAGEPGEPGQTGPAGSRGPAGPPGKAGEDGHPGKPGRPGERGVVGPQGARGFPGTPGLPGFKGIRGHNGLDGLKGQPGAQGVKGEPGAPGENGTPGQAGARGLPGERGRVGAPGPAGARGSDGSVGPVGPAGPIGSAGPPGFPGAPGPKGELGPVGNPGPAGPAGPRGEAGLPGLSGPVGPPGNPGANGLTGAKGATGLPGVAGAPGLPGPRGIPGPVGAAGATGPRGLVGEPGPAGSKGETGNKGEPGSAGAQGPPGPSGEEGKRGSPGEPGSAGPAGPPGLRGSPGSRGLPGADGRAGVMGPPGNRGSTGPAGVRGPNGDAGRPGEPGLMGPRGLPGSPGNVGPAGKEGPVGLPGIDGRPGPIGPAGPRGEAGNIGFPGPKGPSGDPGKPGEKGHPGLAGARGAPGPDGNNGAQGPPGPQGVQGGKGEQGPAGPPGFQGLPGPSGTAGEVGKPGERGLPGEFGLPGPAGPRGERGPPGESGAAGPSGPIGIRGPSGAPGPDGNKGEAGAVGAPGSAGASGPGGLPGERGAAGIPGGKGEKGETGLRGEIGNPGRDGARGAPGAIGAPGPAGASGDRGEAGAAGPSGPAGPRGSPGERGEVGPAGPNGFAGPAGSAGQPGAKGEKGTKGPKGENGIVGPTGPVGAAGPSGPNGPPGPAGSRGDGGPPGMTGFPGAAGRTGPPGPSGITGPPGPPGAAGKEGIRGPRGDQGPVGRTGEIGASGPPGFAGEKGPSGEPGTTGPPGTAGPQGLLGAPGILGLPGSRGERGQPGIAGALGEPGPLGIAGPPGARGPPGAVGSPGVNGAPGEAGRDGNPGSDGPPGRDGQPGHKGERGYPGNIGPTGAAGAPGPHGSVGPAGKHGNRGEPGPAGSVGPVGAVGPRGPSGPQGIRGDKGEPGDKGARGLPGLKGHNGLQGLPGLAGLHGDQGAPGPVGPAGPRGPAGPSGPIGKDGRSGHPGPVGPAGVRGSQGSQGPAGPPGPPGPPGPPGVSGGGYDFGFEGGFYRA

GQWHCTTDFPHHYCLFG [Compound ID 890]: in experiment [1], the Human binding was 38%. The Rat binding in experiment [2] stood at 15%.

As to DWTCSRDEYTWHCNYE [Compound ID 821], the Human binding in experiment [1] was 56%. In addition, the Rat binding in experiment [2] stood at 29%.

For the molecule DWTCSADEYTWHCNYE [Compound ID 835], in experiment [1], the Human binding amounted to 17%. In addition, the Rat binding in experiment [2] was 9%.

The molecule GQWHCTTRFPHAYCLYG [Compound ID 878] showed a Human binding in experiment [1] of 8%. The molecule further yielded a Rat binding in experiment [2] of 9%.

On to KKWHCYTYFPHHYCLYG [Compound ID 802], for which the Human binding in experiment [1] came out at 57%. This molecule showed a Rat binding in experiment [2] of 45%.

Regarding DWTCSSDEYTWHCNYE [Compound ID 836], the Human binding in experiment [1] was 13%. Also, the Rat binding in experiment [2] was 8%.

In experiment [1], GQWTCSGDEYTWHCNY [Compound ID 823] displayed a Human binding of 53%. The Rat binding in experiment [2] came to 28%.

In experiment [1], GQWHCTNRFPHHYCLYG [Compound ID 897] came in with a Human binding of 4%. Also, the Rat binding in experiment [2] was found to be 1%.

For GQWSCTTRFPHHYCLYG [Compound ID 870], the Human binding in experiment [1] amounted to 30%. In experiment [2], this molecule came in with a Rat binding of 28%.

As to DWTCSYDEYTWHCNYE [Compound ID 829], the Human binding in experiment [1] came to 20%. For the same molecule, in experiment [2], the Rat binding stood at 21%.

In experiment [1], GAWTCSGDEYTWHCNYE [Compound ID 830] came in with a Human binding of 26%. Also, in experiment [2], the Rat binding is 11%.

For the molecule DWTCSLDEYTWHCNYE [Compound ID 847], the Human binding in experiment [1] is 16%. In experiment [2], this molecule returned a Rat binding of 7%.

Take GQWHCTTRFPHHYCAYG [Compound ID 855]: the Human binding in experiment [1] turned out to be 27%. In experiment [2], this molecule returned a Rat binding of 15%.

In the case of GQWACTTRFPHHYCLYG [Compound ID 876], in experiment [1], the Human binding came to 48%. In experiment [2], this molecule showed a Rat binding of 26%.

In experiment [1], GQWTCSGDEYTWHCNYA [Compound ID 841] gave a Human binding of 51%. In experiment [2], the Rat binding stood at 28%.

For the molecule GQWTCSGDAYTWHCNYE [Compound ID 838], in experiment [1], the Human binding amounted to 70%. In addition, the Rat binding in experiment [2] came out at 61%.

With GQWTCYGDEYTWYCNYE [Compound ID 826], in experiment [1], the Human binding was 87%. In experiment [2], this molecule yielded a Rat binding of 71%.

As to GQWHCTTRFPAHYCLYG [Compound ID 865], in experiment [1], the Human binding turned out to be 30%. The molecule further had a Rat binding in experiment [2] of 17%.

Consider GAWHCTTRFPHHYCLYG [Compound ID 857], for which the Human binding in experiment [1] amounted to 67%. This molecule yielded a Rat binding in experiment [2] of 69%.

In experiment [1], GQWTCSGDEYTWHCAYE [Compound ID 839] had a Human binding of 30%. The Rat binding in experiment [2] amounted to 11%.

In the case of {GdDTPA‑thiourea}-GQWHCTTRFPHHYCLYGK(GdDTPA‑thiourea)-NH2 (disulfide 5-14) [Compound ID 807], the Human binding in experiment [1] turned out to be 48%. The same molecule registered a Rat binding in experiment [2] of 45%.

GQWHCTTAFPHHYCLYG [Compound ID 853] yielded a Human binding in experiment [1] of 66%. For the same molecule, the Rat binding in experiment [2] was 57%.

With GQWHCTTDYPHHYCLYG [Compound ID 895], the Human binding in experiment [1] turned out to be 7%. Also, the Rat binding in experiment [2] came out at 0%.

Consider DWTCSGDEYRWHCNYE [Compound ID 845], for which the Human binding in experiment [1] is 36%. This molecule registered a Rat binding in experiment [2] of 10%.

Take DWTCSGDEYYWHCNYE [Compound ID 834]: the Human binding in experiment [1] was 22%. The molecule further came in with a Rat binding in experiment [2] of 9%.

With GQWHCTTRFPHHYCKYG [Compound ID 815], the Human binding in experiment [1] amounted to 66%. The molecule further showed a Rat binding in experiment [2] of 59%.

For the molecule GQWHCTTRFPSHYCLYG [Compound ID 880], in experiment [1], the Human binding was determined as 30%. In experiment [2], this molecule yielded a Rat binding of 0%.

The molecule GQWHCTTRYPHHYCLYG [Compound ID 859] registered a Human binding in experiment [1] of 47%. For the same molecule, the Rat binding in experiment [2] was found to be 38%.

The molecule GQWTCSGDEYTWACNYE [Compound ID 833] yielded a Human binding in experiment [1] of 13%. This molecule registered a Rat binding in experiment [2] of 4%.

Regarding DWTCSGDEYTWYCNYE [Compound ID 842], the Human binding in experiment [1] turned out to be 23%. Further, the Rat binding in experiment [2] is 9%.

On to GQWACSGDEYTWHCNYE [Compound ID 840], for which, in experiment [1], the Human binding worked out at 15%. In experiment [2], the Rat binding stood at 3%.

With PPQWHCTTRFPHHYCLYG [Compound ID 854], in experiment [1], the Human binding turned out to be 64%. Further, in experiment [2], the Rat binding came out at 56%.

GQWTCSGDEYAWHCNYE [Compound ID 832]: the Human binding in experiment [1] was determined as 12%. The same molecule yielded a Rat binding in experiment [2] of 4%.

In experiment [1], GQWHCATRFPHHYCLYG [Compound ID 877] returned a Human binding of 58%. The molecule further had a Rat binding in experiment [2] of 41%.

PWTCSGDEYAWHCNYE [Compound ID 824]: in experiment [1], the Human binding came to 12%. In experiment [2], this molecule came in with a Rat binding of 0%.

Molecule GQWTCSGDAYTWHCAYE [Compound ID 820] displayed a Human binding in experiment [1] of 60%. The molecule also gave a Rat binding in experiment [2] of 29%.

Take DWTCRGDEYTWHCNYE [Compound ID 822]: the Human binding in experiment [1] came out at 47%. In experiment [2], this molecule registered a Rat binding of 20%.

These data come from patent US20080058636A1, “METHODS OF MYOCARDIAL IMAGING” (Epix Pharmaceuticals, Inc., priority 2005, published 2008).
